In paper PMC11617674, “The activity of the ribonucleotide monophosphatase UmpH is controlled by interaction with the GlnK signaling protein in Escherichia coli” (The Journal of Biological Chemistry, 2024):

Substrate: O=c1ccn([C@@H]2O[C@H](COP(=O)(O)O)[C@@H](O)[C@H]2O)c(=O)[nH]1
Assay: continuous phosphate release, EnzChek (MESG/purine nucleoside phosphorylase), A360, Michaelis-Menten fit
Type: biochemical, Escherichia coli
Details: no GlnK, no effectors, 20 mM Hepes pH 7.4, 50 mM KCl, 5 mM MgCl2, 2 mM NAG, 2 mM DTT, 25 °C

B1: UmpH (Escherichia coli K-12) (protein)
chain: MTIKNVICDIDGVLMHDNVAVPGAAEFLHGIMDKGLPLVLLTNYPSQTGQDLANRFATAGVDVPDSVFYTSAMATADFLRRQEGKKAYVVGEGALIHELYKAGFTITDVNPDFVIVGETRSYNWDMMHKAAYFVANGARFIATNPDTHGRGFYPACGALCAGIEKISGRKPFYVGKPSPWIIRAALNKMQAHSEETVIVGDNLRTDILAGFQAGLETILVLSGVSSLDDIDSMPFRPSWIYPSVAEIDVI
notes: untagged; synthetic umpH gene in pET29a, expressed in E. coli BL21 (λDE3); band approximately 30 kDa
Work on B1 yielded a Km of 278 ± 27 µM.
